Numbering of substitutions follows the chain as printed. In names and notes the source's numbering stands. Blank lines part the entries; values can stand above or below the binder they belong to.
T1: Spy wild type (Spy_(1-138)) (UniProt P77754 24-161)
T1 construct: Spy, ATP-independent periplasmic chaperone; also called WT; wt; source: E. coli BL21 (DE3), purified (Ni-NTA, cation exchange, SEC); not shown: His6, N-terminal, cleaved; SUMO, N-terminal, cleaved
T1 sequence (looked up): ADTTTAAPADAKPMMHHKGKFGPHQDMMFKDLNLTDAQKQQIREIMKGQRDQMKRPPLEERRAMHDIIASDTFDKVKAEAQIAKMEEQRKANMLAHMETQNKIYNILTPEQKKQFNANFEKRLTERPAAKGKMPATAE

T2: Spy_(29-124) (Escherichia coli K-12 substr. MG1655, UniProt P77754 52-147)
T2 construct: [15N]-labeled in the NMR titrations; also called termini-free Spy; source: E. coli BL21 (DE3), purified (Ni-NTA, cation exchange, SEC); not shown: His6, N-terminal, cleaved; SUMO, N-terminal, cleaved
T2 sequence (looked up): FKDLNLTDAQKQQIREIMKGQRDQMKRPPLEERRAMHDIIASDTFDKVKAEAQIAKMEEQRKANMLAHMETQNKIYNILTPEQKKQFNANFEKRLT

T3: Spy_(29-124) (UniProt P77754 52-147)
T3 construct: structured region of Spy, both disordered termini deleted; residue n is n+23 in P77754; Isotope-labelled ([15N], [13C,15N] or [2H,13C,15N]) in the NMR experiments; source: E. coli BL21 (DE3), purified (Ni-NTA, cation exchange, SEC); not shown: His6-SUMO, N-terminal, cleaved
T3 sequence (looked up): T2 sequence (looked up)

T4: Im7 H40W L53A I54A (UniProt Q03708 1-87, H40W | L53A | I54A, biotin (EZ-link NHS-biotin, 1:1 molar ratio of biotin to protein))
T4 construct: Im7 (colicin E7 immunity protein), partially folded mutant; also called Im7AAW; source: purified by a similar procedure to Spy
T4 sequence: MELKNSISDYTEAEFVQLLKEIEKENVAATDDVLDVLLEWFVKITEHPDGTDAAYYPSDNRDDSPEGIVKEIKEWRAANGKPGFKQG

T5: Spy (GGGS)2 (Escherichia coli K-12 substr. MG1655, UniProt P77754 24-161, (GGGS)2 linker inserted between D26 and M27)
T5 construct: also called Spy variant with a (GGGS)2 linker inserted between D26 and M27; source: E. coli BL21 (DE3), purified (Ni-NTA, cation exchange, SEC); not shown: His6, N-terminal, cleaved; SUMO, N-terminal, cleaved
T5 sequence (looked up): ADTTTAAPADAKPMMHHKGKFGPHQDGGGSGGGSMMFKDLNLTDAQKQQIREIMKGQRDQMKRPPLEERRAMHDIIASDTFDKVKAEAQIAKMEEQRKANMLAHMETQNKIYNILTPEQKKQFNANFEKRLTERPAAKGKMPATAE

T6: Spy wild type (Escherichia coli K-12 substr. MG1655, UniProt P77754 24-161)
T6 construct: also called WT; source: E. coli BL21 (DE3), purified (Ni-NTA, cation exchange, SEC); not shown: His6, N-terminal, cleaved; SUMO, N-terminal, cleaved
T6 sequence (looked up): T1 sequence (looked up)

B1: Spy_(29-138) (domain or fragment, UniProt P77754 52-161, looked up)
chain: FKDLNLTDAQKQQIREIMKGQRDQMKRPPLEERRAMHDIIASDTFDKVKAEAQIAKMEEQRKANMLAHMETQNKIYNILTPEQKKQFNANFEKRLTERPAAKGKMPATAE
notes: source: E. coli BL21 (DE3), purified (Ni-NTA, cation exchange, SEC); not shown: His6, N-terminal, cleaved; SUMO, N-terminal, cleaved
B2: carboxymethylated α-lactalbumin (natural protein, bovine, UniProt P00711 20-142, looked up)
chain: EQLTKCEVFRELKDLKGYGGVSLPEWVCTTFHTSGYDTQAIVQNNDSTEYGLFQINNKIWCKDDQNPHSSNICNISCDKFLDDDLTDDIMCVKKILDKVGINYWLAHKALCSEKLDQWLCEKL
modifications: carboxymethylated (residues not stated); biotin (EZ-link NHS-biotin, 1:1 molar ratio of biotin to protein)
notes: α-lactalbumin, carboxymethylated and thereby unfolded; also called unfolded α-LA
B3: Im7 L18A L19A L37A (natural protein)
chain: T4 sequence with L18A, L19A, L37A, W40H, A53L, A54I
modifications: biotin (EZ-link NHS-biotin, 1:1 molar ratio of biotin to protein)
notes: Im7 (colicin E7 immunity protein) with L18A L19A L37A; also called Im7A3; unfolded client; source: purified by a similar procedure to Spy
B4: Im7 wild type (natural protein)
chain: T4 sequence with W40H, A53L, A54I
modifications: biotin (EZ-link NHS-biotin, 1:1 molar ratio of biotin to protein)
notes: Im7 (colicin E7 immunity protein), wild type; also called Im7 WT; Im7WT; source: purified by a similar procedure to Spy
B5: Nt-pep (peptide)
peptide: ADTTTAAPADAKPMMHHKGKFGPHQDMM
notes: Unlabeled peptide; also called Nt-pep WT; peptide corresponding to Spy residues 1-28
B6: Nt-pep (peptide, UniProt P77754 24-51, looked up)
peptide: ADTTTAAPADAKPMMHHKGKFGPHQDMM
notes: disordered N terminus of Spy as a free peptide; residue n is n+23 in P77754; also called peptide corresponding to Spy residues 1-28
B7: Spy_(21-130) (domain or fragment, UniProt P77754 44-153, looked up)
chain: FGPHQDMMFKDLNLTDAQKQQIREIMKGQRDQMKRPPLEERRAMHDIIASDTFDKVKAEAQIAKMEEQRKANMLAHMETQNKIYNILTPEQKKQFNANFEKRLTERPAAK
notes: previously characterized truncation mutant of Spy; residue n is n+23 in P77754; source: E. coli BL21 (DE3), purified (Ni-NTA, cation exchange, SEC); not shown: His6-SUMO, N-terminal, cleaved
B8: Im7 H40W L53A I54A (natural protein)
chain: T4 sequence
modifications: biotin (EZ-link NHS-biotin, 1:1 molar ratio of biotin to protein)
notes: Im7, colicin E7 immunity protein (gene ceiE7), partially folded mutant H40W L53A I54A; The methods say only that Im7 variants were purified by a similar procedure to Spy (His6-SUMO tag removed); also called Im7AAW; biotin-labeled Im7AAW; source: purified by a similar procedure to Spy

Tests used:
Details in all cases: both partners purified
[1] = target: B2; assay: BLI; Octet RED96; client biotinylated and loaded on streptavidin sensors; Spy or Spy variant in solution at 0.25, 0.5, 1, 1.5 and 2 μM; 40 mM HEPES, 150 mM NaCl, pH 7.5; Kd calculated as koff/kon
[2] = target: B2; assay: as above; remark: listed apart in the source
[3] = target: B2; assay: as above; remark: listed apart in the source
[4] = target: T1, Spy wild type (Spy_(1-138)); assay: as above
[5] = target: T1, Spy wild type (Spy_(1-138)); assay: as above; remark: listed apart in the source
[6] = target: T1, Spy wild type (Spy_(1-138)); assay: as above; remark: listed apart in the source
Spy_(29-138) [7] = target: B1; assay: as above
Spy_(29-138) [8] = target: B1; assay: as above; remark: listed apart in the source
Spy_(29-138) [9] = target: B1; assay: as above; remark: listed apart in the source
Spy_(29-124) [10] = target: T2, Spy_(29-124); assay: NMR titration; 0.1 mM [15N]-Spy29-124 titrated with unlabeled peptide at Spy29-124:peptide 1:2 to 1:40; 1H-15N HSQC, 40 mM HEPES-NaOH, 150 mM NaCl, pH 7.5, 25 °C; global one-site fit of the CSPs of M64, H65, D66, I67, A69, K113, N116, A117, K121; saturation not reached, Kd only an estimate
Spy_(29-124) [11] = target: T3, Spy_(29-124); assay: NMR titration; 0.1 mM [15N]-Spy_(29-124) with unlabeled peptide at molar ratios 1:2 to 1:40; 2D 1H-15N HSQC; 40 mM HEPES-NaOH, 150 mM NaCl, pH 7.5, 25 °C; one-site binding model
Im7 H40W L53A I54A = target: T4, Im7 H40W L53A I54A; assay: BLI; Octet RED96; biotinylated client loaded on streptavidin sensors; Spy or Spy variants at 0.25, 0.5, 1, 1.5 and 2 μM in 40 mM HEPES, 150 mM NaCl, pH 7.5; Kd = koff/kon
Spy (GGGS)2 = target: T5, Spy (GGGS)2; assay: BLI; Octet RED96; biotinylated client loaded on streptavidin sensors, dipped into Spy or Spy variants (0.25, 0.5, 1, 1.5, 2 uM) in 40 mM HEPES, 150 mM NaCl, pH 7.5; kon from kobs against [Spy], Kd = koff/kon
Spy wild type = target: T6, Spy wild type; assay: as above

Binder: B1
Kd [1]: 0.4 µM | kon [2]: 145000 M⁻¹ s⁻¹ | koff [3]: 0.0584 s⁻¹

Binder: B2
Kd [4]: 3.36 µM | kon [5]: 216000 M⁻¹ s⁻¹ | koff [6]: 0.726 s⁻¹

Binder: B3
Kd [4]: 0.67 µM | Kd (Spy_(29-138) [7]): 0.34 µM | kon [5]: 299000 M⁻¹ s⁻¹ | kon (Spy_(29-138) [8]): 254000 M⁻¹ s⁻¹ | koff [6]: 0.199 s⁻¹ | koff (Spy_(29-138) [9]): 0.087 s⁻¹

Binder: B4
Kd [4]: 0.47 µM | Kd (Spy_(29-138) [7]): 0.27 µM | kon [5]: 244000 M⁻¹ s⁻¹ | kon (Spy_(29-138) [8]): 178000 M⁻¹ s⁻¹ | koff [6]: 0.114 s⁻¹ | koff (Spy_(29-138) [9]): 0.048 s⁻¹

Binder: B5
Kd (Spy_(29-124) [10]): 4740 ± 160 µM

Kd (Spy_(29-124) [10]): 7040 ± 280 µM
Binder: ADTTTAAPADAKPMMHHKGKFGPHQRMM (peptide, UniProt P77754 24-51, looked up, Spy of E. coli, residues 1-28 with D26R) [Nt-pep D26R]

Kd (Spy_(29-124) [10]): 6330 ± 250 µM
Binder: ADTTTAAPADAKPMMHHKGKFGPHQKMM (peptide, UniProt P77754 24-51, looked up, Spy of E. coli, residues 1-28 with D26K) [Nt-pep D26K]

Binder: B6
Kd (Spy_(29-124) [11]): 4700 µM

Binder: B7
fold increase in koff (against Spy wild type) (Im7 H40W L53A I54A): ~2 fold

Binder: B8
Kd (Spy (GGGS)2): 0.53 µM | koff (Spy (GGGS)2): 0.123 s⁻¹ | kon (Spy (GGGS)2): 234000 M⁻¹ s⁻¹ | Kd (Spy wild type): 0.64 µM | koff (Spy wild type): 0.178 s⁻¹ | kon (Spy wild type): 276000 M⁻¹ s⁻¹
